According to PMC12776367 (Journal of the American Society of Nephrology : JASN, 2025):

T1: mouse vitronectin (ab92727, Abcam) (mouse, UniProt P29788 20-478)
T1 sequence (looked up): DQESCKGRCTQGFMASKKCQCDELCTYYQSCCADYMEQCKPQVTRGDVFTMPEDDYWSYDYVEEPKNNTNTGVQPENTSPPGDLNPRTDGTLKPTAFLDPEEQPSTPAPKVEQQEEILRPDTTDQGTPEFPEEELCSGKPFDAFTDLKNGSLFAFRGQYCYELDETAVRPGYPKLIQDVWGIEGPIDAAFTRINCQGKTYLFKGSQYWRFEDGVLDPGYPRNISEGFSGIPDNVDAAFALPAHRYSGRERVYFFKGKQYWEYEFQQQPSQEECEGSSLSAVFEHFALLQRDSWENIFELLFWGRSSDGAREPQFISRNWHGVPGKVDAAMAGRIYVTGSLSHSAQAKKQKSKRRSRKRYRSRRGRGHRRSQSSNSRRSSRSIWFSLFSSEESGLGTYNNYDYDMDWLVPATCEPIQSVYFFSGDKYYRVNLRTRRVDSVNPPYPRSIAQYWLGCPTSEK

B1: His-tagged human testican-2 (2328-PI, R&D Systems) (natural protein, UniProt Q92563 23-424, looked up)
chain: EGDAKGLKEGETPGNFMEDEQWLSSISQYSGKIKHWNRFRDEVEDDYIKSWEDNQQGDEALDTTKDPCQKVKCSRHKVCIAQGYQRAMCISRKKLEHRIKQPTVKLHGNKDSICKPCHMAQLASVCGSDGHTYSSVCKLEQQACLSSKQLAVRCEGPCPCPTEQAATSTADGKPETCTGQDLADLGDRLRDWFQLLHENSKQNGSASSVAGPASGLDKSLGASCKDSIGWMFSKLDTSADLFLDQTELAAINLDKYEVCIRPFFNSCDTYKDGRVSTAEWCFCFWREKPPCLAELERIQIQEAAKKKPGIFIPSCDEDGYYRKMQCDQSSGDCWCVDQLGLELTGTRTHGSPDCDDIVGFSGDFGSGVGWEDEEEKETEEAGEEAEEEEGEAGEADDGGYIW
B2: His-tagged mouse testican-2 (MBS1458329, MyBioSource) (natural protein, UniProt Q9ER58 23-423, looked up)
chain: EGDAKGLKEGETPGNFMEDEQWLSSISQYSGKIKHWNRFRDEVEDDYIKSWEDNQQGDEALDTTKDPCQKVKCSRHKVCVAQGYQRAMCISRKKLEHRIKQPSLKLHGGKDSVCKPCHMAQLASVCGSDGHTYSSVCKLEQQACLSSKQLAVRCEGPCPCPTEQSTASTTDSKSETCTGQDLADLGDRLRDWFQLLRENSKQNGSANSATNPAGLDKSLGASCKDSIGWMFSKLDTSGDLFLDQTELAAINLDKYEVCIRPFFNSCDTYKDGRVSTAEWCFCFWREKPPCLAELERTQIQEAAKKKPGVFIPSCDEDGYYRKMQCDQSRGDCWCVDQLGLELTGTRMHGTPDCDDIVGFSGDFGSGVGWEDEEEKETEEAGEEAEEEEGEAGEADDGGYIW
B3: deglycosylated human testican-2 (natural protein, UniProt Q92563 23-424, looked up)
chain: B1 chain
modifications: deglycosylated (Protein Deglycosylation Mix II kit)

Key:
[1] = molecular target: human vitronectin (2349-VN, R&D Systems) (human, UniProt P04004 20-478); assay: BLI
Sequence of human vitronectin (2349-VN, R&D Systems) (P04004 20-478): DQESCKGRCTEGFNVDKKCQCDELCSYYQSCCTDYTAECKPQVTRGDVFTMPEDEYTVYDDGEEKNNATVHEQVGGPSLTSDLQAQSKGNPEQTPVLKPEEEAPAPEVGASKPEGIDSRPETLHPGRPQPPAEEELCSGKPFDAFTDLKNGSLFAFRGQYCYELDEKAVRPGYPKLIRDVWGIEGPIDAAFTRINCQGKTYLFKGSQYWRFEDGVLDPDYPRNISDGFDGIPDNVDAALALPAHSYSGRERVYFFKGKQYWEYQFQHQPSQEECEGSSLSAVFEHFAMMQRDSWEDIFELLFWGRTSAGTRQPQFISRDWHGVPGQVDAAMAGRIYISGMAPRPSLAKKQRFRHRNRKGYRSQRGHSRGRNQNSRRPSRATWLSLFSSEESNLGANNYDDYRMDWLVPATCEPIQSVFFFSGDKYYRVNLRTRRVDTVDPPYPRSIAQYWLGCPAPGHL

[2] = molecular target: T1, mouse vitronectin (ab92727, Abcam); assay: BLI

Binder	Kd [1] [nM]	Kd [2] [nM]
B1	37.4 ± 0.6	–
B2	–	63.7 ± 2.3
B3	348 ± 12.4	–
